Reference: the supplement of paper PMC10567573

B1: NEUROD6 (parent)
chain: YHSPELTTPPGHGTLDNSKSMKPY

Variants of: B1
Experiment: protein stability index of a GFP-peptide fusion (GPS, HEK-293T) (PSI 1-6); higher = more stable
Settings: c terminus: a fixed tail appended
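Also: lentivirally expressed fusions sorted by FACS into six bins by GFP to DsRed ratio, PSI derived from sequencing read proportions per bin multiplied by bin number.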

Going from G11F to N17H, the protein stability index rises from 1.73 to 1.99.

First: S3H
Second: G11C
The protein stability index of the first is higher: 2.44 for the first, 2.06 for the second.

Compared with P9C, N17E is higher in protein stability index: 2.18 for the first, 2.68 for the second.

Compared with P10K, T8G is higher in protein stability index: 2.13 for the first, 2.47 for the second.

First: H12K
Second: L6W
The protein stability index of the first is lower: 2.18 for the first, 2.97 for the second.

Going from K19R to G11R, the protein stability index rises from 1.92 to 2.29.

Compared with Y1M, T7M is lower in protein stability index: 4.74 for the first, 3.75 for the second.

First: L15V
Second: T7S
The protein stability index of the first is higher: 2.26 for the first, 1.96 for the second.

Going from H12T to L6Y, the protein stability index falls from 2.53 to 1.5.

Compared with Y24L, Y24N is higher in protein stability index: 2.27 for the first, 2.44 for the second.

First: P4D
Second: G11T
The protein stability index of the first is higher: 2.97 for the first, 2.08 for the second.

First: S18Q
Second: K19H
The protein stability index of the first is higher: 2.22 for the first, 2.07 for the second.

Going from P4W to D16S, the protein stability index falls from 2.82 to 2.26.

First: Y1P
Second: S3R
The protein stability index of the first is higher: 4.37 for the first, 3.04 for the second.

First: K19V
Second: T8F
The protein stability index of the first is lower: 2.39 for the first, 2.43 for the second.

First: D16L
Second: P10L
The protein stability index of the first is lower: 1.98 for the first, 2.13 for the second.

Compared with P4Y, T14S is higher in protein stability index: 1.68 for the first, 2.25 for the second.

Going from D16H to L6V, the protein stability index falls from 2.46 to 2.39.

First: P10H
Second: E5W
The protein stability index of the first is lower: 2.17 for the first, 2.56 for the second.

Compared with E5F, S3N is lower in protein stability index: 2.83 for the first, 1.56 for the second.

Going from P10M to N17W, the protein stability index rises from 1.88 to 2.51.

Going from Y24A to P10G, the protein stability index falls from 2.24 to 1.78.

First: S18C
Second: H12D
The protein stability index of the first is lower: 1.81 for the first, 2.56 for the second.

Compared with P9N, T14L is lower in protein stability index: 2.24 for the first, 1.86 for the second.

Going from H12M to Y1L, the protein stability index rises from 2.56 to 4.96.

First: P9F
Second: G13W
The protein stability index of the first is lower: 1.63 for the first, 1.76 for the second.

Compared with T8S, G13M is higher in protein stability index: 2 for the first, 2.13 for the second.

Going from T7Y to N17Y, the protein stability index falls from 2.55 to 1.88.

First: P4V
Second: G11D
The protein stability index of the first is lower: 2.11 for the first, 2.69 for the second.

Going from E5D to Y24E, the protein stability index rises from 2.76 to 2.91.

Going from G13N to H2E, the protein stability index rises from 2.47 to 5.07.

Compared with K22M, S3F is lower in protein stability index: 2.15 for the first, 1.86 for the second.

Compared with T7H, H12L is higher in protein stability index: 1.86 for the first, 2.29 for the second.

Compared with P4I, K22Y is lower in protein stability index: 2.23 for the first, 1.83 for the second.

First: D16P
Second: T8Q
The protein stability index of the first is higher: 2.74 for the first, 2.52 for the second.

First: K22W
Second: L6E
The protein stability index of the first is lower: 2.32 for the first, 3.86 for the second.

Going from N17F to P4S, the protein stability index rises from 2.14 to 2.44.

Compared with S18F, H2D is higher in protein stability index: 1.81 for the first, 4.75 for the second.

Going from T7A to P9M, the protein stability index rises from 1.72 to 1.8.

Going from P10E to H12W, the protein stability index falls from 2.42 to 1.43.

Compared with P4F, Y24S is higher in protein stability index: 2.21 for the first, 2.36 for the second.

First: E5S
Second: H2V
The protein stability index of the first is higher: 2.29 for the first, 2.25 for the second.

First: Y1K
Second: Y1G
The protein stability index of the first is higher: 4.93 for the first, 4.91 for the second.

First: T14Q
Second: T7L
The protein stability index of the first is lower: 1.6 for the first, 2.3 for the second.

Going from L15H to S3G, the protein stability index rises from 2.36 to 3.46.

Compared with H2N, Y1W is lower in protein stability index: 4.71 for the first, 4.53 for the second.

First: T7R
Second: P4Q
The protein stability index of the first is higher: 3.58 for the first, 2.46 for the second.

Compared with S18N, N17P is lower in protein stability index: 2.54 for the first, 2.15 for the second.

Compared with D16M, G11E is higher in protein stability index: 2.45 for the first, 2.67 for the second.

Going from S3C to T8R, the protein stability index rises from 2.33 to 2.35.

Compared with T14R, Y24F is higher in protein stability index: 2.07 for the first, 2.21 for the second.

Compared with H2G, H12I is lower in protein stability index: 4.41 for the first, 2.01 for the second.

First: P23K
Second: P9Q
The protein stability index of the first is higher: 2.33 for the first, 2.22 for the second.

First: K19F
Second: K19I
The protein stability index of the first is lower: 1.85 for the first, 2.33 for the second.

Going from P23D to T14C, the protein stability index falls from 2.28 to 1.9.

First: L15Q
Second: Y24K
The protein stability index of the first is higher: 2.77 for the first, 2.23 for the second.

Compared with P4L, K22F is higher in protein stability index: 1.95 for the first, 2.25 for the second.

Going from Y1C to T14Y, the protein stability index falls from 4.53 to 1.77.

Compared with L15Y, T14H is lower in protein stability index: 2.27 for the first, 2.24 for the second.

First: T7F
Second: M21Q
The protein stability index of the first is lower: 2.12 for the first, 2.32 for the second.

First: G13F
Second: Y24Q
The protein stability index of the first is lower: 2.18 for the first, 2.62 for the second.

Compared with P10W, N17D is lower in protein stability index: 3.84 for the first, 2.21 for the second.

First: H12G
Second: G11S
The protein stability index of the first is higher: 2.48 for the first, 2.17 for the second.

First: H2W
Second: M21N
The protein stability index of the first is higher: 3.91 for the first, 2.82 for the second.

Compared with H2P, G11M is lower in protein stability index: 4.29 for the first, 2.48 for the second.

First: K19N
Second: H2R
The protein stability index of the first is lower: 2.44 for the first, 4.14 for the second.

Compared with M21I, P4A is lower in protein stability index: 2.84 for the first, 2.6 for the second.

First: K22N
Second: H2C
The protein stability index of the first is lower: 2.14 for the first, 3.23 for the second.

First: P4M
Second: T7Q
The protein stability index of the first is higher: 2.52 for the first, 2.39 for the second.

Going from T8I to Y24C, the protein stability index rises from 2.12 to 2.38.

Going from S20N to P10C, the protein stability index falls from 2.33 to 1.9.

Compared with P10T, S3K is higher in protein stability index: 1.7 for the first, 3.71 for the second.

First: N17A
Second: P9Y
The protein stability index of the first is higher: 2.51 for the first, 1.66 for the second.

First: Y24M
Second: G13V
The protein stability index of the first is lower: 2.02 for the first, 2.05 for the second.

Going from P9G to H2S, the protein stability index rises from 2.03 to 4.53.

Compared with S20V, M21L is higher in protein stability index: 1.92 for the first, 2.44 for the second.

First: S20G
Second: P10Y
The protein stability index of the first is higher: 2.28 for the first, 1.96 for the second.

Compared with P9A, M21K is higher in protein stability index: 2.04 for the first, 2.36 for the second.

First: T7K
Second: H12Y
The protein stability index of the first is higher: 2.69 for the first, 1.71 for the second.

First: D16E
Second: N17M
The protein stability index of the first is higher: 2.32 for the first, 1.55 for the second.

Going from S18L to P10S, the protein stability index rises from 1.74 to 1.75.

Compared with T7N, T14I is lower in protein stability index: 2.84 for the first, 1.9 for the second.

First: L6M
Second: Y1F
The protein stability index of the first is lower: 2.33 for the first, 2.7 for the second.

Variant M21H has a protein stability index of 2.56.
